experiment: soluble on expression in E. coli; label from the status in PepcDB or PDB records

Sequence	soluble on expression in E. coli
MQMISRITTGISMQYGLSNGTITFDDLIPELLHFGTITPTQISAITTDKLTEIVDGINGLQRKLDSSSEQLEEQLMMFASVYEKTKGVVPGSIIPKDDVYKTQLDALKIKWSKVDSFAKGIVIFLNEMESMEGVTSDDDANIKLSDMAPHLPKFKDWTLEEYNVYAQNQHLRNIHISYPSLNLVYKAVAEFFPYKNSLDGSLLPQVQENINKLNTLAEKIKPEAPMISQLHELFLSRSLKKSVNFKIISGLLNGISDIQMIFTDLKNEWVNKTVDGQAYNLGKALNQLKTLGNNAQQVDLSIVPVEEKIFKDVSNLYQKVNSLKDLTVIVRPLIGTVTGIEIPQSAIRIPAIDVIGQLIDKMKLLSSKLAALEILVHLSKTLRSAKNTIKLEKMKNITTAAEGKLELFKKSSDFKDIYKLILPAKKAAQKLKEAPTITETVTKIQTSFGNLTTFVDDLKSFLDDIKFLENIKGIDSLKPVIEVIRDYRDPKLFKKVDLSTLIGHLPKLKSTLKVLGDYIKGIKTSKHMETEALSTFTNISVGSQVVGMATRGITNMQMMSSQTVDLKIVKELKAVIDEEMKKHQLNPSDVKNLNSLDGLEDELNRIKTAISDFKKSVKPVKSFKLSNYSGFFQDAKKVPGIKINLPAIIGSVEKLKDRLSTRRRRSASASQLDTLLSLLRSLQIYDSAKFSKAFDDSAKSLQALDTSFTAYSKATSKLQGQKGSQSPRSPGSSPTKELSFLENDGEEFKITHHQVLDWNGLNALEDHRGAGLAAMFLMKYETTAIVHCVDGVSRSAVLAGMIIGFQKIIETRGDMNVADLIDDLRKQRAMAITSGLELAFVDAGIFLLFKRMMNNFEEEYPEDLKQMLKDAVQYYKLIAGYQVQQRDNYFKKLDNMGKKQMNQKKSTEEGVDKSKEQGKDATVMKEKSPLAKVN	not soluble
MGSDKIHHHHHHMTQSPDLQAVLDYADAHMNDSLARLFDLVRIPSVSTVPAHAGDCRAAAQWLSDQLNDLGFDASVRPTGGHPMVVAHQTDADGPHVLFYGHYDVQPVVPLELWKTDPFEPTLEPQPNGDTHITGRGASDDKGQLLTFIEACRAWKAVTGRLPIKVSMLFEGEEESGSQSLGPFLEQTAEELRADVMMVCDTDMWDRDTPAITTMLRGLVGEEFTITTADRDLHSGMFGNAARNALQVASDAIAGLRGPDGGVTLPGFYDGVEDLAPEIKAQWKSLPFDQEGFLSDVGLSLPAGEDAYSIMEQIWARPSCEIHGVIGGYTDEGFKTVIPAKATAKVSFRLVAGQDPARIREAFRAHIRAYVPKDCSVEFTSHGASPALSLPLDSPYLTATREALSQEWGTEAALAGTGGSIPIVGEFKRQLGMDTLLVGFARFDNRIHSPNEKYDLSSFTGGIRSFVRVLAALSEIEAAAAP	not soluble
GLVLPHTEFQPAPKQDSSPHLTSQRPVDMVQLLKKYPIVWQGLLALKNDTAAVQLHFVSGNNVLAHRSLPLSEGGPPLRIAQRMRLEATQLEGVARRMTVETDYCLLLALPCGRDQEDVVSQTESLKAAFITYLQAKQAAGIINVPNPGSNQPAYVLQIFPPCEFSESHLSRLAPDLLASISNISPHLMIVIASV	soluble
MPAKDVQICPIAVDTTVFRSRTWDRLKFEIEYGLQRGTTANSYLISADKIALFDPPGESFTDNFVGTLIQRLDLNSLDYVILGHVNANRAHTLKLLLSLAPQATIICSNPAAQNLEKLLADAEVNNPIQVMKGNDHLDLGRGHELTFIPTPSPRYPGQLCTYDPRTEILFTDKLFGAHVCGDQVFDEGWTIYQEDRRYYFDCLLAPAAAQVSAALNKLEAYPAQTYAPSHGPLVRYGLRELTRNYQQWLEHHHHHH	soluble
MGSDKIHHHHHHMETISQEKAIEAMPLEGAERTRFWRDPRFKGMECLSATFITHEFAPHAHDTFSIGAIEAGSQISTIKGERSQTGPGDLYLINPDEIHDGHPGHEGYRYRMVYPPTDLLVEILEDVTGRSFKGTPSFSRLLLTDRELALGFHRAHRALEGKVGTLEADESMFGFLARLFERHGNAIIVPLQTRESSAVHRARDYLVENYTHDIGLEELAKLAGLSRAHLIRAFRKEFHITPHAFLTDKRVREAKALLRRGWSAADTAYHCGFADQAHFSRHFKARTGVTPGAYRSA	not soluble
MRLSISLGESPCISSLKVRGFTASPQTPNLSISVIVTAFNRREYLRYALLSLKNQEADSFEVVVSKNFSDRVTDKFCSENGFINVTTDSSRSGERVYDALRSSHGDFILFLDDDDIFRRTKISRVSDVISKRNVAFYRNAIFPVTVDGVIATHYQPQMHDPLYLILERVSDVRLLHRHACDFNSSSMGISRSMLDSHASDLRKINLAVDTFYFALAASSRMPLFCDSMIESIYRIMPSSTSRDLRDFYLFSRFERSFLRRYVPDLERIAEIVEGSPAKPVIGRMLSLYKILQYVFEEDRVNLKPSPLDRVRFLLERPFPYSLLYSRIFRDAAMRSEFRRENRIVYGNADRRRRLEHHHHHH	soluble
SNASGQQVHRLLGNKLELASTGQTIYHQDINLNNHPWIGDHRVYDTPVIPGVSYIAMTLAAVGVPAAVEDINFQQPLFLAESNTTRETQLMLHTADNVGKQFVEVFSRDGAKQEEWQQHASMSVSENPPPPPTLSVDIPALCEQLRPLDTDTLTEIYASISLVYGPMLQAVRQAWIGEETSLLEIEVPKALAFQLAGEPIHPVLIDACTRLTPDLFDFSSDSGVFWAPWRVKEMTLSHPTPSRFYAYVEEPSRVNEQLQTRSYDIQLLDETGQAFGRINGFTVKRAPSQLFLK	soluble
MENREPPLLPARWSSAYVSYWSPMLPDDQLTSGYCWFDYERDICRIDGLFNPWSERDTGYRLWMSEVGNAASGRTWKQKVAYGRERTALGEQLCERPLDDETGPFAELFLPRDVLRRLGARHIGRRVVLGREADGWRYQRPGKGPSTLYLDAASGTPLRMVTGDEASRASLRDFPNVSEAEIPDAVFAAKRLEHHHHHH	soluble
MNDIWWQTYGEGNCHLVLLHGWGLNAEVWHCIREELGSHFTLHLVDLPGYGRSSGFGAMTLEEMTAQVAKNAPDQAIWLGWSLGGLVASQMALTHPERVQALVTVASSPCFSAREGWPGIKPEILGGFQQQLSDDFQRTVERFLALQTLGTETARQDARTLKSVVLAQPMPDVEVLNGGLEILKTVDLREALKNVNMPFLRLYGYLDGLVPRKIVPLLDTLWPHSTSQIMAKAAHAPFISHPAAFCQALMTLKSSL	not soluble
MGGSLGLALQEWGRFKSVIGYDHNALHAKLALTLGLVDECVGFEKILECDVIFLAIPVEGIIGCLKKMTSIKKSATIIDLGGAKAQIIRNIPKSIRKNFIAAHPMCGTEFYGPKASVKGLYENALVILCDLEDSGTEQVEIAKEIFLGVKARLIKMKSNEHDTHVAYISHLPHVLSYALANSVLKQNDPEMILSLAGGGFRDMSRLSKSSPLMWKDIFKQNRDNVLEAIKKCEKEIVQAKAWIENNDYESLAEWMAQANKLQEFMLEHHHHHH	not soluble
MSLKNLHPIMLAGTGSDVGKSVIAAALCRIFKQDGYRPAPFKAQNMALNSYATPEGLEIGRAQAVQAEAAGVPCHTDMNPLLLKPSSDHTSQVVLNGRPIGNRNAFEYFRKEGREELRQEVNAAFDRLAARYNPIVMEGAGSISEINLRDTDLVNMPMACYADADVILVADIDRGGVFASVYGSVMLQTPEDKKRIKGVIINKFRGDIRLFESGVKMMEDLCGIPVLGIIPYYRNIHIEEEDSVGLDYKRMQAVEGKINIAVVLLRHLSNFTDFNRLERDERVHLYYTNNTEDLAKADIILLPGSKSTLDDLYELRRNGVAQAVLRAHREGVTVMGICGGYQLMGLEIHDPEGVEGEIRQLPGLGLLPVITTMQGEKVTRQVNFHFLENAETCQGYEIHMGETRPVPGEAVVPLNKLEDGGEDGCFVNQKCMGSYIHGILDNQAFIDYLLEPYAEKLECHTVLDYRTYKEEQYDKLAEHVRSHLNLPLLYQIMSGNEGHHHHHH	soluble
MGLVDYAGSESESDEEMETQQKNSLAPQNQQLVDDEAFFDNTEKSSSPNMNKEDVLEELVKPKEWEVKLAEKARRKLEKKALKKAQKEERKKEKKLAKKAMKVEKIPKIGGGIQKAKGKVIISAFGALAGITGENSSDDSDNEGAAVATVKPKLGNSFLSNLPAPKGRDNRSDGANVFDKSMVPHSVSKKATPAAAPVFKPAPAPKLPDDSDDDDDGPTDFFGFSSAPTRKESEIPSEIPYMTMNSSMDVVGPSRPDEGMDPRQMYEMPEEEEDVQEGPSASNAWLHRKINDEQAHKLLMRFSHDIGQEERRSINEMANSIVDVNVDDALGPDVKTNIIKNLGHRAFVEATSAPLPQVQTQGQMSRRKHQITYLASLAVSREEQLKDQWADQKQSKRMARQKYGF	not soluble
MPFIECHIATGLSVARKQQLIRDVIDVTNKSIGSDPKIINVLLVEHAEANMSISGRIHGEAASTERTPAVS	soluble
MKHLLPFATVILALGIVGCQKVETTAPEKIKQDTQTKQQVSVTPERPSDAELNAVKVYHHMKYMEATAKLAGGTNKLLHTKKLPTEGSDAVVTPALDHLYSKGVIDLSNGPVTIEYPEVDEGRYYSIHVTDQEHYTIFDKIHPVGKFTFVRKGKNMEVPEGATVIESPGDYPHLFIRVQVKTPEDLVNALSIQEKITLTANSSKTLIVDNPIKHTLATHDVYSQNKELMVSSVNFTHQDYLRVSEYLGVVAPNMGPTGNIGLFGPIDSNEPNSDDYLFRAVGIIGHLGLPLEHAYYGPYFTNCENQLLMGDKTEVFTLPYEPEGVELFWSVTRYSALTRNTLPGKNDLINAYNTKPDANGNISITFSADSPNDGTYWMPVNSGEPYYFVVRYYKPDVNNLPEKPCSLEHHHHHH	not soluble
FFSGLFQRKSDAPVTTPAELADAIGLSYDTYTGKQISSQRAMRLTAVFSCVRVLAESVGMLPCNLYHLNGSLKQRATGERLHKLISTHPNGYMTPQEFWELVVTCLCLRGNFYAYKVKAFGEVAELLPVDPGCVVYALGRCQRWPEGDRRECYSAR	soluble
MLTLVGTYPPIRCGIATFNRDLREALLREGVPSQVAVVAHPEEVALPFPQEVVRVVAKEDREGYRALARLLRGPVILQHEYGLYGGKWGDYVLDLLEAQGPKLVVLHTLLQAPPPGLGEADLRYMQGLLRAMAERAQAFVALHPEGEGLLRALGVRIPVAHIPHGVPDLPRPPKEALKRALGLEGAFLLFTYGLLGPGKGLEFALKVLARVLPHNPRVRYLVAGRLHPNLERHEGRRYLERVREMAEALGVGEAFLLREGYLSEEELYRLAGAADLFLLPYPNLEQVSSGTLSYALALGKAVLSTPFRHARAALAAGRGVLLPLEEEAWAQAVLALAESPERLREMEERAYAYARDFTWPRVARAYRRLLEEVADVRPRVA	soluble
MSLKVIATDMDGTLLDARGQLDLPRLEKILDQLDQRGIRFVIATGNEIHRMRQLLSPLVDRVVLVVANGARIFENNELIQAQTWDDAIVNKALTHFKGRACQDQFVVTGMKGDFVKEGTIFTDLESFMTPEMIEKFYQRMQFVDELTSDLFGGVLKMSMVVGEERLSSVLEEINALFDGRVRAVSSGYGCIDILQAGIHKAWGLEELLKRWDLKSQEIMAFGDSENDVEMLEMAGIAYAMENADEKAKAVATALAPANSQGGVYQVLENWLEKGEGHHHHHH	soluble
MGEVFKMDGLASTILEVHKPAKLEDIPDEDPIAIILALKWLEYLCERAGVENVSDILDFYYMLGWLGDKALAKLLKFLKGIKVDEENVVEGSGKLNITDHIISLLFIERLNGKKISAELLDKIEWELRKIKKGAEQFYGI	not soluble

Reference: the DeepSol protein solubility set
